# Measured values taken from the RNAGym collection of RNA variant scans (doi:10.1073/pnas.2313332121).
# Variants at the floor of the assay were thinned out.
# B1: TPR 5TU (parent)
# chain: GGAUCUUCUCGAUCUAACAAAAAAGACAAAUCUGCCACAAAGCUUGAGAGCAUCUUCGGAUGCAGAGGCGGCAGCCUUCGGUGGCGCGAUAGCGCCAACGUUCUCAACUAUGACACGCAAAACGCGUGCUCCGUUGAAUGGAGUUUAUCAUG
# Variants of: B1
# Assay: polymerase ribozyme fitness, log enrichment relative to wild type (log ratio); higher = more active; in vitro selection for triplet polymerase activity
# In short: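 A heterodimeric triplet polymerase ribozyme had each of its subunits mutagenized by PCR into a library, which was transcribed. One round of in vitro selection, done in triplicate, annealed each library with a biotinylated primer, its partner subunit and triplets, then incubated it frozen at −7 °C before gel excision of extended constructs, streptavidin-bead capture and RT-PCR. Fitness is the logarithm of genotype enrichment relative to wild-type enrichment, based on Illumina sequencing of inputs and outputs and inverse-variance-weighted replicate averages. A base-2 logarithm is used, and genotypes were kept only with ≥10 input reads and ≥1 read per output.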
row,Variant,polymerase ribozyme fitness (log ratio)
1,A91G U144A,-3.08
2,C96G A122U,-1.49
3,G94A U101C,-0.823
4,C96U U146C,-0.67
5,G94A C95G G133A U134G A137U,-4.11
6,G94A A120C,-0.523
7,A91G A142C,-3.5
8,G92U A121G G143C U145G,-3.44
9,C96A C125G,-0.535
10,C96U G124U,-0.372
11,C96U G124A,-0.382
12,G92A C103A G126A,-3.74
13,C99U G143C,-2.66
14,C96U C125U,-0.382
15,C96U C125A,-0.0844
16,G92A G126U,-2.26
17,C93G A98U C114A,-3.85
18,A91U U134G A137U,≤ -4.2
19,C96U G124A A147U,0.911
20,A98U G136U,-2.64
21,C93U C114U,-2.54
22,G92A A106G,-2.36
23,G94C A115U,-2.98
24,G94C U127C,-2.45

row,Variant,polymerase ribozyme fitness (log ratio)
1,C96A A122C U139G A150C,-3.67
2,C96A A98U C103G U109A A121U,≤ -4.2
3,C96G G112A,-4.07
4,C96G A137U,-4
5,G94C A137C C149U,-3.76
6,C93G A98C G143C,-4.05
7,G92A C105U G141C,-3.39
8,C93G C114U,-3.97
9,G94C G100C C131U G133C C149G,≤ -4.2
10,A91G C108U C116G G152A,-3.48
11,G94U C95A G152A,-3.85
12,C96G U148A,-3.53
13,C96U A119U,-0.778
14,C95U C116G U135A,-2.67
15,C96A A150C,-3.12
16,C96G A98U,-0.873
17,C95U U102G C105U,-2.98
18,C96G U146C,-1.45
19,A97G A98U,-0.253
20,C93U C116U A122U A150C,-3.57
21,G94A A115U,-1.76
22,G92A A97G A122U U148C,-3.63
23,C95U U130G,-2.55
24,C95U C149A,≤ -4.2

row,Variant,polymerase ribozyme fitness (log ratio)
1,C96U C123U G136U,-2.2
2,C96A U134C A138G G141C,-4.07
3,C96G A120C,0.168
4,C96G A120G,-2
5,C93A A115C,-3.22
6,C96U U102G U144A A150U,≤ -4.2
7,C99A U146G,-1.41
8,C99A U146A,-1.15
9,G94C A106C C116U,-3.12
10,C99G U146G,-1.32
11,A98G A107U,-3.24
12,C93U G141A,-1.7
13,C99G A113C U135C,≤ -4.2
14,G94C G100U,-3.69
15,G100A G124A,≤ -4.2
16,C93U U146G,-1.47
17,C93U U146A,-1.46
18,G92U C103U G136U,-3.43
19,G94A A106C G136A,-0.404
20,A97G U101G,0.358
21,C96A A115C,-0.888
22,C96A A115U,-2.29
23,C93G C132G,≤ -4.2
24,C93U U151A,≤ -4.2

row,Variant,polymerase ribozyme fitness (log ratio)
1,C95U C96A,-1.02
2,G94C G133A,-4.02
3,G94U U102C,-2.06
4,G94U A98U C99G A147G,-3.16
5,A98G G133C,-1.69
6,C96A A97G G143A,-0.965
7,G94U C108U,-3.54
8,C93G A122U,-2.98
9,C93A C118G,-3.44
10,C93A C118U,-3.29
11,C93U A122U,-0.696
12,A91U A106G,-4.01
13,A91U U139A G140C G143C,≤ -4.2
14,C95U C99A,-0.15
15,C95U C99U,-1.09
16,C93U A98G G124C,-1.76
17,A97C C103G C114G,-3.86
18,G92C U148C,-2.56
19,G92C U148G,-3.89
20,C93A C105A,≤ -4.2
21,C96A A106C,-0.591
22,C96U C132A,-1.63
23,C99U U145G,-2.09
24,A97U U104G,-0.956

row,Variant,polymerase ribozyme fitness (log ratio)
1,C96U U104G,-1.59
2,C96G C114U,-2.18
3,C96G C114A,-4.19
4,A91C A106G,≤ -4.2
5,C96G A142G U145G A147U,-2.85
6,A91U C93A A122U G143C,≤ -4.2
7,G92C G141C,-0.623
8,G94U C125U G143U,-4.16
9,A91U U145G,≤ -4.2
10,C93A G124C,-2.88
11,A97U U134G,-2.5
12,A91G G152A,-3.71
13,C96A C118U,-1.8
14,C93A U102A A137C,≤ -4.2
15,C93U C116U G141A,-0.0845
16,C96A G140U,-3.47
17,C95U A119U,-0.544
18,C95U A119G,0.353
19,G92A A138C U148C,≤ -4.2
20,C99G A107C G143C,≤ -4.2
21,A91U A147U,-3.99
22,C95U G124C,-0.723
23,C95U A97U C99U G133U A150G,≤ -4.2
24,A98U C105A A119G A121C,-0.491

row,Variant,polymerase ribozyme fitness (log ratio)
1,C99U U104A U109C A115G,-3.79
2,A98U A150C,-2.82
3,C99U G117C,0.786
4,C99U U104G,-1.84
5,A91U A98G U102G C105U,≤ -4.2
6,A91U U127G,≤ -4.2
7,C93G G94U C108G,≤ -4.2
8,A91G G140A,-4.12
9,C95G A98G,-1.57
10,G94A A97G,-2.19
11,C93A U104C,-3.27
12,C99A C131G,≤ -4.2
13,C96U A147U,1.21
14,C96U A147G,-1.18
15,C93U C118A U144G,-1.06
16,G94A A97U C125G,-2.14
17,G92U A147C,-0.377
18,C93U C125U,-1.43
19,C93U G152A,-3.11
20,C93U G152U,-3.49
21,A91U U104A G141A U148A,≤ -4.2
22,A91U U111C,≤ -4.2
23,C99U A107G,-4.16
24,C99U A107U,-3.88

row,Variant,polymerase ribozyme fitness (log ratio)
1,G94A G117C A137G,-3.09
2,C93U C99U C114G,-3.73
3,C95U C103G,-1.69
4,C93G C125G A150U,-4.06
5,G94U A147G,-1.51
6,G94C A97U G136U,-3.38
7,C93U C99G G136A U145G,-1.59
8,G94A C149U,-1.24
9,C93G A119U,-3.51
10,G94U G140U,-3.84
11,C93U C99A G128C,≤ -4.2
12,C96U A122C,-0.314
13,C96U A122G,-0.14
14,C93U A119G C123U U135G,-4.18
15,G94A G136C,-3.98
16,C93U A121C G140C,≤ -4.2
17,A91C U102G A138C,≤ -4.2
18,A91U C96U C103A U109C,≤ -4.2
19,G94C A150U,1.09
20,G94C C96U G136A G140A,≤ -4.2
21,C93A U127C,-3.6
22,C93U A98G C103A,-2.73
23,A98U A107U C125A A147G,≤ -4.2
